Experimental data as given in the DeepSol protein solubility set.

Assay: soluble on expression in E. coli; label from the status in PepcDB or PDB records

Row | Sequence | soluble on expression in E. coli
1 | MSLASLSLAPVNIFKAGADEERAETARLTSFIGAIAIGDLVKSTLGPKGMDKILLSSGRDASLMVTNDGATILKNIGVDNPAAKVLVDMSRVQDDEVGDGTTSVTVLAAELLREAESLIAKKIHPQTIIAGWREATKAAREALLSSAVDHGSDEVKFRQDLMNIAGTTLSSKLLTHHKDHFTKLAVEAVLRLKGSGNLEAIHIIKKLGGSLADSYLDEGFLLDKKIGVNQPKRIENAKILIANTGMDTDKIKIFGSRVRVDSTAKVAEIEHAEKEKMKEKVERILKHGINCFINRQLIYNYPEQLFGAAGVMAIEHADFAGVERLALVTGGEIASTFDHPELVKLGSCKLIEEVMIGEDKLIHFSGVALGEACTIVLRGATQQILDEAERSLHDALCVLAQTVKDSRTVYGGGCSEMLMAHAVTQLANRTPGKEAVAMESYAKALRMLPTIIADNAGYDSADLVAQLRAAHSEGNTTAGLDMREGTIGDMAILGITESFQVKRQVLLSAAEAAEVILRVDNIIKAAPRKRVPDHHEGHHHHHH | not soluble
2 | MGSDKIHHHHHHYRPLFDKDLSNADYDSSVWTFKNGILTATADQSIWTKVQYENFILDLEFKTDVNTNSGVVIYCTDKGNWIPSSIEIQIADDHHPEWQSYPEYWRCGSIYGHKGANEQLVVKKPGEWNRMIITAKGQQIDIELNGKHIVSANLADWTSGTTNPDGTEIPEWLPIPYANMPTKGYIGLQGKHGESNIWFRNIQLKQL | not soluble
3 | MSAISPFVAIRRDLHQIPELGFQELKTQQYLLRYIQSLPQERLQVRTWKTGIFVKVNGTSPRKTIGYRADMDGLPIREETGLPYRSKHEGHMHACGHDVHMSIALGVLTHFAHHPLEDDLLFVFQPAEEGPGGAKPMLESDIMREWKPDMIVALHIAPEYPVGTIATKEGLLFANTSELFIDLKGRGGHAAFPHLANDMVVAACALVTQLQSIVARNVDPLDSAVITIGKIAGGTVQNVIAEHARLEGTIRTLSTAAMQKVKRRIEAIVHGIEVAYECETSIDYGAMYHEVYNDPDLTAEFMKFAKAHGGVNVIRCKEAMTGEDFGYMLAEIPGFMFWLGVDSPYGLHHAKLAPNEEAIDRAIAFLIDYFSWKGNAE | not soluble
4 | MPAQPNPEQRDWLEALNAGDATMGESRLFERDGTWYLHVTATRDVEERSDVSAEERTPIGVDIGEASLATVCHRDGHGSPTAPELWADEGKTVRRLRKTYFTATRRLQTRGSERIVESFGDDIWDQIDDVFHRVTREVVEYAESVENPVLVLEDLTYIRESMDYGEYMNRRLHGWGFAKLHAQIRYKAVEKGIPVETVNPCNTSKECHACGEVGYRPRQATFKCTNDACWMGESQADVNGAINIADRYLSGESHSREHTDGDDSAGDGGRLTAPQDTLADATTQETLGTYAS | soluble
5 | MILVNRETRVLVQGITGREGQFHTKQMLSYGTKIVAGVTPGKGGMEVLGVPVYDTVKEAVAHHEVDASIIFVPAPAAADAALEAAHAGIPLIVLITEGIPTLDMVRAVEEIKALGSRLIGGNCPGIISAEETKIGIMPGHVFKRGRVGIISRSGTLTYEAAAALSQAGLGTTTTVGIGGDPVIGTTFKDLLPLFNEDPETEAVVLIGEIGGFDEEEAAAWVKDHMKKPVVGFIGGRSAPKGKRMGHAGAIIMGNVGTPESKLRAFAEAGIPVADTIDEIVELVKKALG | soluble
6 | MSDTSYKLGITKTFPCNYLPDQQERLLIAVDERLHNSESYGWLMTQGFRRSGDQSYRPSCPNCNACQSIRVLTSDFLPSKSQKRSKKRNSHFIIKQSSQLKDSYYPLFENYINTLHQDGSMYPASFQQFESFLSCNLTQQLFIETWAPANEENGPKEDKLVCVAVTDVLSNGLSAVYTFYHPDYKANGLGVFSILTQLSLSQQMSLPYLYLGYQIDECQKMNYKDRYFPFERFIDGQWLINTKPSVNKAKIAKLEHHHHHH | not soluble
7 | MFRKLGSSGSLWKPKNPHSLEYLKYLQGVLTKNEKVTENNKKILVEALRAIAEILIWGDQNDASVFDFFLERQMLLYFLKIMEQGNTPLNVQLLQTLNILFENIRHETSLYFLLSNNHVNSIISHKFDLQNDEIMAYYISFLKTLSFKLNPATIHFFFNETTEEFPLLVEVLKLYNWNESMVRIAVRNILLNIVRVQDDSMIIFAIKHTKEYLSELIDSLVGLSLEMDTFVRSAENVLANRERLRGKVDDLIDLIHYIGELLDVEAVAESLSILVTTRYLSPLLLSSISPRRDNHSLLLTPISALFFFSEFLLIVRHHETIYTFLSSFLFDTQNTLTTHWIRHNEKYCLEPITLSSPTGEYVNEDHVFFDFLLEAFDSSQADDSKAFYGLMLIYSMFQNNADVGELLSAANFPVLKESTTTSLAQQNLARLRIASTSSISKRTRAITEIGVEATEEDEIFHDVPEEQTLEDLVDDVLVDTENSAISDPEPKNVESESRSRFQSAVDELPPPSTSGCDGRLFDALSSIIKAVGTDDNRIRPITLELACLVIRQILMTVDDEKVHTSLTKLCFEVRLKLLSSIGQYVNGENLFLEWFEDEYAEFEVNHVNFDIIGHEMLLPPAATPLSNLLLHKRLPSGFEERIRTQIVFYLHIRKLERDLTGEGDTELPVRVLNSDQEPVAIGDCINLHNSDLLSCTVVPQQLCSLGKPGDRLARFLVTDRLQLILVEPDSRKAGWAIVRFVGLLQDTTINGDSTDSKVLHVVVEGQPSRIKKRHPVLTAKFIFDDHIRCMAAKQRLTKGRQTARGLKLQAICSALGVPRIDPATMTSSPRMNPFRIVKGCAPGSVRKTVSTSSSSSQGRPGHYSANLRSASRNAGMIPDDPTQPSSSSERRS | not soluble
8 | MIFKQNQNYWAVFDANKETLIVQTCSGLGLTAIDHLYPPHILPLDTDNETLGTTVLQALANSRTFVYDSPEDQDFFDTEKIRQRYEDWVAKLCGNLGYKTRRALFKNMMSVDIWLHNGCLKISPSRHVKLEAWNAIDADDVILSLDNSPEEIGAGLKLALSHCR | not soluble
9 | MGSDKIHHHHHHMISDIPFLALLPLGAHEYHGDHLPFETDWIIAEAFAKALTVKTKKQFHIALLPVEKIGYSIEHMDVSGTQTLTFSEAIERWINIGEDCYRKGIKRFLLLNAHGGNSPLMSIVITELRKRFSMLAVATSWTRFGLPHGLMHPSQHHLDIHGGFIETSLMLYLAPEKVHMEKAKNFYNKQADMIANYQYLRAYGPHAFGWTMRDLNLQGAAGKAREATSQAGKAIFSHVLGGLRGLLDDINRFKIDAL | not soluble
10 | MKLEASLKHFSPQGMHISDSVKETSPDRLTGTDIMVAIGTTSSRARFGLAAFFGKAGISKTDEQLAVQALVRHAMDTAPKNVRKAAGGEFGWCMLVLAQFAFAEYSRSAATSVTCHTCKGSGRITRTQTTRKVSYPWGKAPYWASKSRAVRPSDWEKWTEVTEIVPAVCEACDGKGTISARCRCGGKGEVLDRIATKERGVPVFKTCERCSGEGYSRVSSATVHRAILKRLPDLHQSSWSRNWKPFYEMLVDVLYKGERQAASEFEKATAY | not soluble
11 | MAHHHHHHMSEDESNSVSCSLSLESDGYSDEEYDTNLNKLIENESLNWIFVGGKGGVGKTTTSCSIAVQLSKRRESVLLLSTDPAHNTSDAFNQKFTNQPTLINSFDNLYCMEIDTNYSENTAFKLNKKEMFDNILPELLHSFPGIDEALCFAELMQSIKNMKYSVIVFDTAPTGHTLRLLAFPDLLKKALGYLINIREKLKGTLNVLKNFTNNEMEFDSLYEKINHLNAMSSSIQANFQNPMKTTFVCVCIPEFLSVYETERLIQELTKKNISCYNIVVNQVVFPLDSPNVNLENCKNLLSQIKNEQIQSYFNDLISKTEELEDVYISRRKLQSKYLTQIKNLYSNDFHIVCMPQLKNEIRGLNNISSFSEMLLQSKDIPIYKDNL | not soluble
12 | SALIAALSVSGLPSNRFTFEGFLPAKPTARRDRLTHLAHEPRTLIFYEASHRIAECLTDLATIFGSMRIAVVARELTKIFETVLDGTLATLQTQVANDENQRKGEFVIIVQGAADQ | not soluble
13 | MSKIEQIITEIEEYIDNCKFQPLSTSKIIVNKDEIDELLAELRLRTPDEIKKYQKIIANKDAILNDAKERAEAMVSEATAHINQLVSEHEIMQKAYEEANQIIEQAQAEAQGILDSATTEANDLRTRAMQYTDDILANVQSILSTGMDSFESAQNTMMTSLNSSLNVVVESRKELGGAEDEESVENGEDDNLSVDLL | not soluble
14 | MEHKTPKHIVAVAGYLTNEKNEVLLTKVHWRADTWELPGGQVEEGEALDQAVCREIKEETGLTVKPIGITGVYYNTSMHILAVVFKVAYISGEIKIQPEEIQEAKFVDLNEENIDEYITRPHMKSRTLDAMRATHFIPYETWEVQPYNLIGRL | not soluble
